2 molecules from PMC8687462 (bioRxiv, 2021) can be followed below.

A word on the stoichiometry N: it is the number of molecules, sites or subunits per partner or assembly. The Kd is the free concentration of one partner at which half of the binding sites on the other are occupied at equilibrium, for simple one-to-one binding.

Series [1] deals with HSPB6-nhpSer16 (UniProt O14558). The experiment in a line: SEC-MALS. The note with it: scale: 14-3-3 chains per HSPB6 chain. A general note: Size exclusion chromatography separates by hydrodynamic size, large species first.
For series [2], the target named is HSPB6-pSer16 (UniProt O14558). Nature of the series: SEC-MALS. The note with it: scale: 14-3-3 chains per HSPB6 chain.
Chain of HSPB6-pSer16 (O14558 whole entry): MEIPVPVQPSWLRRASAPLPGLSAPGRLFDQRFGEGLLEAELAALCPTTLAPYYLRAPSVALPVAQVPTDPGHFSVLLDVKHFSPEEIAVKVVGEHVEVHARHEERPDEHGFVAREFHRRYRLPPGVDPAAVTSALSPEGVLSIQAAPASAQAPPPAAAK
In series [3] the target is HSPB6-nhpSer16 (UniProt O14558). The experiment in a line: AUC.
For series [4], the target named is HSPB6-pSer16 (UniProt O14558). The experiment in a line: AUC.
Series [5] deals with the molecule itself. The experiment in a line: SEC-MALS.

For “14-3-3ζ (untagged, co-expressed with His-tagged HSPB6) (from UniProt P63104 1-230) (natural protein)”, the stoichiometry N in series [1] and in series [2] was 1 in each case. Moreover, the Kd turned out to be 120 nM in series [3] and 92 nM in series [4].

B1: 14-3-3ζ S58E (natural protein)
chain: MDKNELVQKAKLAEQAERYDDMAACMKSVTEQGAELSNEERNLLSVAYKNVVGARRSEWRVVSSIEQKTEGAEKKQQMAREYREKIETELRDICNDVLSLLEKFLIPNASQAESKVFYLKMKGDYYRYLAEVAAGDDKKGIVDQSQQAYQEAFEISKKEMQPTHPIRLGLALNFSVFYYEILNSPEKACSLAKTAFDEAIAELDTLSEESYKDSTLIMQLLRDNLTLWTS
B1: in series [5], the “stoichiometry N” value was found to be 2.
